# Data: patent US8974802B2, “Medicament for the treatment of cancer of the pancreas” (Erytech Pharma, priority 2007, dated 2015)
# B1: asparaginase (protein, UniProt P00805 23-348, looked up)
# L-asparaginase 2: LPNITILATGGTIAGGGDSATKSNYTVGKVGVENLVNAVPQLKDIANVKGEQVVNIGSQDMNDNVWLTLAKKINTDCDKTDGFVITHGTDTMEETAYFLDLTVKCDKPVVMVGAMRPSTSMSADGPFNLYNAVVTAADKASANRGVLVVMNDTVLDGRDVTKTNTTDVATFKSVNYGPLGYIHNGKIDYQRTPARKHTSDTPFDVSKLNELPKVGIVYNYANASDLPAKALVDAGYDGIVSAGVGNGNLYKSVFDTLATAAKTGTAVVRSSRVPTGATTQDAEVDDAKYGFVASGTLNPQKARVLLQLALTQTKDPQQIQQIFNQY
# notes: bacterial enzyme, CAS number 9015-68-3, hydrolyses and depletes asparagine
# B2: PEG-asparaginase: pegylated form of asparaginase (Oncaspar, Enzon Pharmaceuticals) (protein, UniProt P00805 23-348, looked up)
# L-asparaginase 2: B1 L-asparaginase 2
# modifications: PEG
# What was measured:
# MIA Paca-2 cells [1] = settings: PEG-asparaginase 0.8 kIU/kg; gemcitabine 80 mg/kg; mice; cited from earlier work
# [2] = system: PANC-1 human pancreatic tumor (clone no. 6sC); experiment: In vivo anti-tumoral study in mice bearing pancreatic tumor PANC-1; settings: day 43, L-aspa RBC single 200 IU/kg i.v., gemcitabine 4 x 80 mg/kg i.v.
# Text: The objective of this study was to assess the antitumoral effects of L-asparaginase encapsulated in red blood cells (L-aspa RBC) administered in a human pancreatic tumor (PANC-1) xenograft model.
# In this study, 4 groups of 15 mice received either L-asparaginase encapsulated in red blood cells, gemcitabine (reference treatment in pancreatic cancer), a combination of both agents or control item. A last group of 10 mice received no treatment and was used as control group.
# A Log-growing culture of human pancreatic tumor cells, PANC-1 (obtained from ECCAC, UK), was subcloned and the clone no.
# Clone no 6sC was trypsinized, counted, washed and resuspended in serum-free DMEM medium for sub-cutaneous injection to 100 nu/nu athymic mice.
# Hundred athymic Nude mice of 5 week-old, weighing 20 g+/−3 g were supplied by Harlan France. […]
# Four days after cell implantation, tumor volumes were measured and ranked according to size and median was calculated. […]
# Tumor measurements were recorded 3 times a week (on Mondays, Wednesday and Friday) during 43 days.
# The relative tumor volume is calculated by dividing the tumor volume at a given day by the tumor volume before treatment avoiding the bias due to statistical difference in tumor volume between groups on the day of injection.
# [3] = system: Mia PaCa-2 human pancreatic tumour cells; experiment: Growth inhibition of human pancreatic tumours (Mia PaCa-2) in nude mice; assay type: in vivo; settings: after 57 days, L-Aspa RBC single 200 IU/kg i.v., gemcitabine 4 x 60 mg/kg i.v.
# Text: The purpose of this experiment is to inject L-Aspa RBC into mice bearing human pancreatic tumours and to observe a tumour growth inhibition. A cell line sensitive to L-asparaginase in vitro, and deficient in L-asparagine synthase, was selected: Mia PaCa-2. To study the tumour growth inhibition after the injection of L-Aspa RBC, an in vivo protocol was set up with 4 groups of 12 mice. A reference treatment for cancer of the pancreas, gemcitabine, is included in the protocol. Human pancreatic tumour cells (Mia PaCa-2) in exponential growth phase (origin ATCC: American Type Culture Collection) were subjected to tryptic digestion, then counted and washed before finally being resuspended in a DMEM serum-free medium in order for them to be injected subcutaneously into 48 athymic nude/nude mice. The 48 athymic nude/nude (nude balb/c) mice, aged 5-6 weeks and between 18 and 22 g in weight, were supplied by Harlan (France). The animals were kept for 7 days in a specialized SPF (specific-pathogen-free) unit before the treatment. The 48 mice were divided randomly into 4 groups of 12 mice. […]
# MIA Paca-2 cells [4] = settings: nude mice; PEG-asparaginase 12.5 or 25 IU/g per day i/p for 14 days; gemcitabine 80 mg/kg i/p days 1, 4, 7, 10; cited from earlier work
# [5] = system: human pulmonary and melanoma cells; settings: Yunis et al. 1977; cited from earlier work
# MIA Paca-2 cells [6] = settings: cited from earlier work
# [7] = direct injection; cited from earlier work
# pancreatic carcinoma = settings: cited from earlier work
# PANC-1 cells = settings: cited from earlier work
# CFPAC-2 = settings: AACR 2006; cited from earlier work
# AsPC-1 = settings: AACR 2006; cited from earlier work
# solid tumor = settings: trial suspended; cited from earlier work
# PANC 10.05 = settings: AACR 2006; cited from earlier work
# BxPC-3 cells = settings: 10 IU/ml; Denis et al. 1999; cited from earlier work
molecule,measurement,setting,value
Nc1ccn([C@@H]2O[C@H](CO)[C@@H](O)C2(F)F)c(=O)n1 [gemcitabine],decrease of tumour volume,MIA Paca-2 cells [1],29%
same,mouse survival (mice remaining / still alive),[2],20%
same,relative tumor volume,[2]; tumor volume divided by volume before treatment,51.8±17.1
same,tumour volume,[3],1353±1016 mm^3
same,cell growth inhibition in vivo,MIA Paca-2 cells [4],63.5%
B1,effect on growth,[5],no effect
same,inhibition of cell growth,"MIA Paca-2 cells [6]; 0.0025 IU/ml, Wu et al. 1982",no effect
same,effect on the growth of the cells,"MIA Paca-2 cells [6]; 0.1 IU/ml, Yunis et al. 1977",significant effect on the growth of the cells
same,effect on cell growth,"MIA Paca-2 cells [6]; 0.5 and 1 IU/ml, Yunis et al. 1977",total inhibition of cell growth with cell death
same,allergic reaction incidence,[7],27%
same,side-effects,"pancreatic carcinoma; IV 1000 IU/kg/day, ten patients with inoperable pancreatic cancer, treatment stopped early",Serious side-effects appeared rapidly
same,clinical response,"pancreatic carcinoma; two of the patients, Lessner 1977",no response
same,inhibition of cell growth,"PANC-1 cells; 0.0025 IU/ml, Wu et al. 1982",no effect
same,effect on cell growth,"PANC-1 cells; 1 IU/ml, Yunis et al. 1977",has an effect
B2,decrease of tumour volume,MIA Paca-2 cells [1],14%
same,in vitro cytotoxicity (IC50),CFPAC-2,greater than 20 IU/ml
same,in vitro cytotoxicity (IC50),AsPC-1,greater than 20 IU/ml
same,cell growth inhibition,"MIA Paca-2 cells [6]; 1 IU/ml, Denis et al. 1999",61%
same,in vitro cytotoxicity (IC50),MIA Paca-2 cells [6]; AACR 2006,0.66 IU/ml
same,IC50,MIA Paca-2 cells [6]; Denis et al. 1999,0.13 IU/ml
same,clinical trial outcome,solid tumor,toxicity was reached before efficacy
same,in vitro cytotoxicity (IC50),PANC 10.05,0.46 IU/ml
same,cell growth inhibition in vivo,MIA Paca-2 cells [4],59%
same,cell growth inhibition,BxPC-3 cells,51%
same,cell growth inhibition,"PANC-1 cells; 1 IU/ml, Denis et al. 1999",100%
same,in vitro cytotoxicity (IC50),PANC-1 cells; AACR 2006,0.27 IU/ml
same,IC50,PANC-1 cells; Denis et al. 1999,0.25 IU/ml
